Test results: the supplement of paper PMC11246515
± gives the standard deviation of the averaged measurements.

Assay: total protein half-life in vivo (active degradation + dilution); higher = more stable protein
[1] = E. coli NCM3722 delta-clpP delta-lon delta-hslV, growth: N-lim chemostat, doubling time 6 h
[2] = E. coli NCM3722 delta-clpP, growth: N-lim chemostat, doubling time 6 h
[3] = E. coli NCM3722 delta-smpB, growth: N-lim chemostat, doubling time 6 h
[4] = wild type E. coli NCM3722, growth: C-lim chemostat, doubling time 6 h
[5] = wild type E. coli NCM3722, growth: N-lim chemostat, doubling time 6 h
[6] = wild type E. coli NCM3722, growth: P-lim chemostat, doubling time 6 h
[7] = wild type E. coli NCM3722, growth: P-lim chemostat, doubling time 12 h
[8] = wild type E. coli NCM3722, growth: C-lim chemostat, doubling time 12 h
[9] = E. coli NCM3722 delta-hslV, growth: N-lim chemostat, doubling time 6 h
[10] = E. coli NCM3722 delta-lon, growth: N-lim chemostat, doubling time 6 h
[11] = wild type E. coli NCM3722, growth: C-lim chemostat, doubling time 3 h
[12] = wild type E. coli NCM3722, growth: N-lim chemostat, doubling time 12 h

MNINVAELLNGNYILLLFVVLALGLCLGKLRLGSIQLGNSIGVLVVSLLLGQQHFSINTDALNLGFMLFIFCVGVEAGPNFFSIFFRDGKNYLMLALVMVGSALVIALGLGKLFGWDIGLTAGMLAGSMTSTPVLVGAGDTLRHSGMESRQLSLALDNLSLGYALTYLIGLVSLIVGARYLPKLQHQDLQTSAQQIARERGLDTDANRKVYLPVIRAYRVGPELVAWTDGKNLRELGIYRQTGCYIERIRRNGILANPDGDAVLQMGDEIALVGYPDAHARLDPSFRNGKEVFDRDLLDMRIVTEEVVVKNHNAVGKRLAQLKLTDHGCFLNRVIRSQIEMPIDDNVVLNKGDVLQVSGDARRVKTIADRIGFISIHSQVTDLLAFCAFFVIGLMIGMITFQFSTFSFGMGNAAGLLFAGIMLGFMRANHPTFGYIPQGALSMVKEFGLMVFMAGVGLSAGSGINNGLGAIGGQMLIAGLIVSLVPVVICFLFGAYVLRMNRALLFGAMMGARTCAPAMEIISDTARSNIPALGYAGTYAIANVLLTLAGTIIVMVWPGLG
total protein half-life in vivo [1]: 6.56 ± 0.66 h
total protein half-life in vivo [2]: 6.38 ± 1 h
total protein half-life in vivo [3]: 6.19 ± 0.91 h
total protein half-life in vivo [4]: 7.06 ± 0.39 h
total protein half-life in vivo [5]: 6.17 ± 0.47 h
total protein half-life in vivo [6]: 7.316 ± 0.023 h
total protein half-life in vivo [7]: 12 ± 2.5 h

MTLLASLRDWLKAQQLDAVLLSSRQNKQPHLGISTGSGYVVISRESAHILVDSRYYVEVEARAQGYQLHLLDATNTLTTIVNQIIADEQLQTLGFEGQQVSWETAHRWQSELNAKLVSATPDVLRQIKTPEEVEKIRLACGIADRGAEHIRRFIQAGMSEREIAAELEWFMRQQGAEKASFDTIVASGWRGALPHGKASDKIVAAGEFVTLDFGALYQGYCSDMTRTLLVNGEGVSAESHLLFNVYQIVLQAQLAAISAIRPGVRCQQVDDAARRVITEAGYGDYFGHNTGHAIGIEVHEDPRFSPRDTTTLQPGMLLTVEPGIYLPGQGGVRIEDVVLVTPQGAEVLYAMPKTVLLTGEA
total protein half-life in vivo [1]: 6.04 h
total protein half-life in vivo [8]: 3.72 h

MNEAVSPGALSTLFTDARTHNGWRETPVSDETLREIYALMKWGPTSANCSPARIVFTRTAEGKERLRPALSSGNLQKTLTAPVTAIVAWDSEFYERLPLLFPHGDARSWFTSSPQLAEETAFRNSSMQAAYLIVACRALGLDTGPMSGFDRQHVDDAFFTGSTLKSNLLINIGYGDSSKLYARLPRLSFEEACGLL
total protein half-life in vivo [2]: 1.43 h
total protein half-life in vivo [9]: 0.257 ± 0.15 h
total protein half-life in vivo [10]: 0.612 ± 0.095 h
total protein half-life in vivo [3]: 0.402 h
total protein half-life in vivo [5]: 0.94 ± 0.6 h

MPYLLEMKNITKTFGSVKAIDNVCLRLNAGEIVSLCGENGSGKSTLMKVLCGIYPHGSYEGEIIFAGEEIQASHIRDTERKGIAIIHQELALVKELTVLENIFLGNEITHNGIMDYDLMTLRCQKLLAQVSLSISPDTRVGDLGLGQQQLVEIAKALNKQVRLLILDEPTASLTEQETSILLDIIRDLQQHGIACIYISHKLNEVKAISDTICVIRDGQHIGTRDAAGMSEDDIITMMVGRELTALYPNEPHTTGDEILRIEHLTAWHPVNRHIKRVNDVSFSLKRGEILGIAGLVGAGRTETIQCLFGVWPGQWEGKIYIDGKQVDIRNCQQAIAQGIAMVPEDRKRDGIVPVMAVGKNITLAALNKFTGGISQLDDAAEQKCILESIQQLKVKTSSPDLAIGRLSGGNQQKAILARCLLLNPRILILDEPTRGIDIGAKYEIYKLINQLVQQGIAVIVISSELPEVLGLSDRVLVMHEGKLKANLINHNLTQEQVMEAALRSEHHVEKQSV
total protein half-life in vivo [11]: 2.9 ± 0.53 h
total protein half-life in vivo [8]: 7.37 ± 2.8 h
total protein half-life in vivo [7]: 9.14 h

MVSSFTSAPRSGFYYFAQGWKLVSQPGIRRFVILPLLVNILLMGGAFWWLFTQLDVWIPTLMSYVPDWLQWLSYLLWPLAVISVLLVFGYFFSTIANWIAAPFNGLLAEQLEARLTGATPPDTGIFGIMKDVPRIMKREWQKFAWYLPRAIVLLILYFIPGIGQTVAPVLWFLFSAWMLAIQYCDYPFDNHKVPFKEMRTALRTRKITNMQFGALTSLFTMIPLLNLFIMPVAVCGATAMWVDCYRDKHAMWR [P0A6J3]
total protein half-life in vivo [1]: 6.46 h
total protein half-life in vivo [9]: 5.84 h
total protein half-life in vivo [10]: 6.33 ± 0.76 h
total protein half-life in vivo [3]: 6.144 ± 0.028 h
total protein half-life in vivo [11]: 3.19 ± 0.53 h
total protein half-life in vivo [4]: 5.49 ± 0.6 h
total protein half-life in vivo [8]: 12.3 h
total protein half-life in vivo [5]: 6.67 h
total protein half-life in vivo [12]: 13.7 ± 1.9 h
total protein half-life in vivo [6]: 7.18 h
total protein half-life in vivo [7]: 13.2 ± 0.26 h

MNKSMLAGIGIGVAAALGVAAVASLNVFERGPQYAQVVSATPIKETVKTPRQECRNVTVTHRRPVQDENRITGSVLGAVAGGVIGHQFGGGRGKDVATVVGALGGGYAGNQIQGSLQESDTYTTTQQRCKTVYDKSEKMLGYDVTYKIGDQQGKIRMDRDPGTQIPLDSNGQLILNNKV [P0AB35]
total protein half-life in vivo [1]: 0.776 ± 0.14 h
total protein half-life in vivo [2]: 0.716 h
total protein half-life in vivo [3]: 0.623 h
total protein half-life in vivo [11]: 0.834 h
total protein half-life in vivo [5]: 0.945 h
total protein half-life in vivo [6]: 0.416 h
total protein half-life in vivo [7]: 1.21 h

MNLHEYQAKQLFARYGLPAPVGYACTTPREAEEAASKIGAGPWVVKCQVHAGGRGKAGGVKVVNSKEDIRAFAENWLGKRLVTYQTDANGQPVNQILVEAATDIAKELYLGAVVDRSSRRVVFMASTEGGVEIEKVAEETPHLIHKVALDPLTGPMPYQGRELAFKLGLEGKLVQQFTKIFMGLATIFLERDLALIEINPLVITKQGDLICLDGKLGADGNALFRQPDLREMRDQSQEDPREAQAAQWELNYVALDGNIGCMVNGAGLAMGTMDIVKLHGGEPANFLDVGGGATKERVTEAFKIILSDDKVKAVLVNIFGGIVRCDLIADGIIGAVAEVGVNVPVVVRLEGNNAELGAKKLADSGLNIIAAKGLTDAAQQVVAAVEGK [P0A836]
total protein half-life in vivo [1]: 4.73 ± 0.42 h
total protein half-life in vivo [2]: 4.59 ± 0.34 h
total protein half-life in vivo [9]: 4.45 ± 0.2 h
total protein half-life in vivo [10]: 4.87 ± 0.23 h
total protein half-life in vivo [3]: 4.18 ± 0.058 h
total protein half-life in vivo [11]: 3.08 ± 0.061 h
total protein half-life in vivo [4]: 5.79 ± 0.26 h
total protein half-life in vivo [8]: 10.5 ± 1.7 h
total protein half-life in vivo [5]: 4.46 ± 0.14 h
total protein half-life in vivo [12]: 7.39 ± 0.36 h
total protein half-life in vivo [6]: 5.95 ± 0.15 h
total protein half-life in vivo [7]: 12.2 ± 1.2 h

MNSIFTEENLLAFTTAARFGSFSKAAEELGLTTSAISYTIKRMETGLDVVLFTRSTRSIELTESGRYFFRKATDLLNDFYAIKRRIDTISQGIEARVRICINQLLYTPKHTARLLQVLKKQFPTCQITVTTEVYNGVWDAIINNQANIAIGAPDTLLDGGGIDYTEIGAIRWAFAIAPDHPLAFVPEPIAESQLRLYPNIMVEDTAHTINKKVGWLLHGQESILVPDFNTKCQCQILGEGIGFLPDYMVREAMTQSLLVTRQIHNPRQDSRMLLATQHSATGQVTQWIKKQFAPNGILTGIYQDLLHREN
total protein half-life in vivo [1]: 5.9 h
